# Laboratory results published in publication PMC8208635.
# Biological target: nascent, unphosphorylated PKC species (PDK1 binding, Fig. S9C) (UniProt P68403)
binder,measurement,value
PDK1 (enzyme) MARTTSQLYDAVPIQSSVVLCSCPSPSMVRTQTESSTPPGIPGGSRQGPAMDGTAAEPRPGAGSLQHAQPPPQPRKKRPEDFKFGKILGEGSFSTVVLARELATSREYAIKILEKRHIIKENKVPYVTRERDVMSRLDHPFFVKLYFTFQDDEKLYFGLSYAKNGELLKYIRKIGSFDETCTRFYTAEIVSALEYLHGKGIIHRDLKPENILLNEDMHIQITDFGTAKVLSPESKQARANSFVGTAQYVSPELLTEKSACKSSDLWALGCIIYQLVAGLPPFRAGNEYLIFQKIIKLEYDFPEKFFPKARDLVEKLLVLDATKRLGCEEMEGYGPLKAHPFFESVTWENLHQQTPPKLTAYLPAMSEDDEDCYGNYDNLLSQFGCMQVSSSSSSHSLSASDTGLPQRSGSNIEQYIHDLDSNSFELDLQFSEDEKRLLLEKQAGGNPWHQFVENNLILKMGPVDKRKGLFARRRQLLLTEGPHLYYVDPVNKVLKGEIPWSQELRPEAKNFKTFFVHTPNRTYYLMDPSGNAHKWCRKIQEVWRQRYQSHPDAAVQ,fold binding relative to the phosphorylated form,2 fold
